Literature values in paper PMC11348067.

Molecular target: Mucin 1 (human) (UniProt P15941)
Assay: not stated (cited)
Conditions: aptamer/padlock annealed in water with 80 mM NaCl (2 uL of 800 mM in 20 uL), then 40 uL protein added, 30 min; pH and binding temperature not stated; ligation …

Chain of Mucin 1 (human) (P15941 24-1158): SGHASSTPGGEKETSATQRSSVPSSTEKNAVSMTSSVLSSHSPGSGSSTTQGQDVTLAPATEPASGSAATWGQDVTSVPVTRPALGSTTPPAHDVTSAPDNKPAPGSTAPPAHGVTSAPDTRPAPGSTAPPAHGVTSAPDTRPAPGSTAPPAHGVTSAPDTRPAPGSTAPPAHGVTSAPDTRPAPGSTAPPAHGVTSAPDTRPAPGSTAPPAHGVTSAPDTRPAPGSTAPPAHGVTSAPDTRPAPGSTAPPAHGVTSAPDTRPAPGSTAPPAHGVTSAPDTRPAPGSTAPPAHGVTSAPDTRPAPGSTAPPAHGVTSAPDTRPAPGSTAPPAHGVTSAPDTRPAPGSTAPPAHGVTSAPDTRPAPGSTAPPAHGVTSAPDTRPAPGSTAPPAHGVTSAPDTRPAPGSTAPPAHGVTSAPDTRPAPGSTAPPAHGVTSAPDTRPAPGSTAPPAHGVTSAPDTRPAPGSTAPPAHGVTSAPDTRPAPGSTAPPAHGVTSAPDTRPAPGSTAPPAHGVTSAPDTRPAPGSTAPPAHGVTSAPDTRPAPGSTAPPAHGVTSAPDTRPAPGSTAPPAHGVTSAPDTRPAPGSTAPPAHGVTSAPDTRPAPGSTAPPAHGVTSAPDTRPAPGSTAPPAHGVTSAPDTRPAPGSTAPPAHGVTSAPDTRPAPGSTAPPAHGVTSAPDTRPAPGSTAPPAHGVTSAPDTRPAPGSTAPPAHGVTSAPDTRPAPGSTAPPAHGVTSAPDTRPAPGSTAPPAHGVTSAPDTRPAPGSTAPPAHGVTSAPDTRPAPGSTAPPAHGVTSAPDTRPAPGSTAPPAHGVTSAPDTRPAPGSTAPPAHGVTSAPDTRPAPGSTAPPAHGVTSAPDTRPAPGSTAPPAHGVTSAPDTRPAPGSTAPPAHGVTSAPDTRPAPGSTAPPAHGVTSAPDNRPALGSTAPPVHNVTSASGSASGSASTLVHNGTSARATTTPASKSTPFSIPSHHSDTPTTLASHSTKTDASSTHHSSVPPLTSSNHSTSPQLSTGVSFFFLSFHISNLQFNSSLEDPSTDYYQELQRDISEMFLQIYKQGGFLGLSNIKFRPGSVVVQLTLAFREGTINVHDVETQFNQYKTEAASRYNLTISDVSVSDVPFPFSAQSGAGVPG

**Q.** For “GCAGTTGATCCTTTGGATACCCTGGAGTGA [Mucin 1 aptamer]”, which Kd is on record?
**A.** 0.135 nM
